The record followed here is article PMC3285272 (Cell, 2012).

Assay [1] deals with T1, βδ-COP dimer with full-length β-COP L124E (R. norvegicus | B. taurus, UniProt P23514 1-953; P53619 1-511, L124E).
T1 sequence (looked up) 1: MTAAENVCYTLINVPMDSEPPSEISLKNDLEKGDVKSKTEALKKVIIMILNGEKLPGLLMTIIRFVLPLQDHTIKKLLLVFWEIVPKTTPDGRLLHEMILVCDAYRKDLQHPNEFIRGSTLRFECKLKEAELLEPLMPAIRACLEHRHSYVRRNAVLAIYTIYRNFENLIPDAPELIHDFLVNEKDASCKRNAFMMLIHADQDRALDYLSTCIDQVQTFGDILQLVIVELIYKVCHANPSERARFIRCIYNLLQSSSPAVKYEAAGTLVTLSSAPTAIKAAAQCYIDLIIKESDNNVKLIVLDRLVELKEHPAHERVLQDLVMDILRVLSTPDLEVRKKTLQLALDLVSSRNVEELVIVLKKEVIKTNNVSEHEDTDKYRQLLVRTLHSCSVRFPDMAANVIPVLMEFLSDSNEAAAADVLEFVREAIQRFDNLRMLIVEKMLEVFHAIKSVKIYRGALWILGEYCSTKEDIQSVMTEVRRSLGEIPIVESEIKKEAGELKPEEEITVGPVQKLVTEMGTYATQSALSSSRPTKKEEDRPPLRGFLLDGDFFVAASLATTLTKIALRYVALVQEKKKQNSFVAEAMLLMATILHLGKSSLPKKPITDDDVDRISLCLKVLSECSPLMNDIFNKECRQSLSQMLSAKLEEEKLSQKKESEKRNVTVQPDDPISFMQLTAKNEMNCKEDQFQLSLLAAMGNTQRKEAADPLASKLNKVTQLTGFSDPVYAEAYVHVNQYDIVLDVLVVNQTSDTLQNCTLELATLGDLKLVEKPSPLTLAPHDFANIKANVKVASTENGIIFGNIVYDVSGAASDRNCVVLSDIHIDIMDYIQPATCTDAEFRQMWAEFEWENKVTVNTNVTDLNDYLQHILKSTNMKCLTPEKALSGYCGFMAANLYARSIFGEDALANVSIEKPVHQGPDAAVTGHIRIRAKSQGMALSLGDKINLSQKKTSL
T1 sequence (looked up) 2: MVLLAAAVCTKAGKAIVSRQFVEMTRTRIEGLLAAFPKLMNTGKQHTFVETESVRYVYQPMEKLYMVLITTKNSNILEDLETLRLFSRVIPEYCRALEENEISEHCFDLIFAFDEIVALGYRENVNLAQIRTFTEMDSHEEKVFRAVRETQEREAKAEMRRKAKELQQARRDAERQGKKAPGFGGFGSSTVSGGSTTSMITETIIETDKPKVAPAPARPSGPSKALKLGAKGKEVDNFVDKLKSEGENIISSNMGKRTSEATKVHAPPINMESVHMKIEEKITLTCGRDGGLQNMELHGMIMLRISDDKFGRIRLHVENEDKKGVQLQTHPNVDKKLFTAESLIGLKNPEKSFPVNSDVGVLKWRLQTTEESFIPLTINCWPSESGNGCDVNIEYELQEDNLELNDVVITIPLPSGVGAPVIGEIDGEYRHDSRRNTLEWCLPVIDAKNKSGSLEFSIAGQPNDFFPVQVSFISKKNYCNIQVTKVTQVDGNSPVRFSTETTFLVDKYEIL
The assay can be described thus: pull-down.

The target of assay [2] is T2, full-length βδ-COP dimer (R. norvegicus | B. taurus, UniProt P23514 1-953; P53619 1-511).
T2 sequence (looked up) 1: T1 sequence (looked up) 1 with E124L
T2 sequence (looked up) 2: T1 sequence (looked up) 2
The assay can be described thus: pull-down.

Changes are numbered by the printed parent chain.

B1: S. cerevisiae Arf1 (residues 18–181) with a C-terminal GST tag (domain or fragment, UniProt P11076 18-181, looked up)
chain: MRILMVGLDGAGKTTVLYKLKLGEVITTIPTIGFNVETVQYKNISFTVWDVGGQDRIRSLWRHYYRNTEGVIFVVDSNDRSRIGEAREVMQRMLNEDELRNAAWLVFANKQDLPEAMSAAEITEKLGLHSIRNRPWFIQATCATSGEGLYEGLEWLSNSLKNST
For the molecule B1, the binding result in assay [1] and in assay [2] was “binds” throughout.
